The source of these data is article PMC6930887.

Values joined by “and” are separate entries in the source; they are usually repeats but may differ in a detail not shown here. Equal values may be shown once.

The target of the assay is T1, endogenously expressed σ1R of mouse brain cortex (mouse (endogenous in brain cortex)), O55242.
T1 chain: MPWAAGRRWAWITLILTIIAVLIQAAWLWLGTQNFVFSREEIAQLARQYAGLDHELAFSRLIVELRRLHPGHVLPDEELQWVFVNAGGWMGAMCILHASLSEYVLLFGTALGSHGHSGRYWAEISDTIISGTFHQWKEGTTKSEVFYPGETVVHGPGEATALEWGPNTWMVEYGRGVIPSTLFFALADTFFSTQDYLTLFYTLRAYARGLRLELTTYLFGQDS
The assay is described as follows: SDS-PAGE western blot without heat denaturation; mouse brain cortex homogenised in lysis buffer, samples kept on ice, same protocol as for the transfected cells. Particulars: remark: other sources report otherwise. Background: Immunoblotting shows a protein as a band on a membrane.

B1: endogenously expressed σ1R of mouse brain cortex, O55242 1-223 (receptor)
chain: T1 chain
With B1, the stoichiometry N is 2 and 4.

As a reminder, the stoichiometry N is a count of units in the complex or per binding partner.
